Results as given in US20180291082A1.
Where two headings read alike, the source gives them in different places. Values belong to the binder of their own block, whether it stands above or below them.

Key:
Experiment in all cases: UV-ligand exchange, anti-b2m ELISA; exchange yield grade (+ >10%, ++ >20%, +++ >50, ++++ >75%)
HLA-A*03:01 (human) = target: HLA-A*03:01 (human)
HLA-B*44:02 (human) = target: HLA-B*44:02 (human)
HLA-A*01:01 (human) = conditions: remark: other sources report otherwise

- peptide exchange yield (HLA-A*03:01 (human)): 20 to 50%
Binder: KITDFGLAK (modifications not checked)

- peptide exchange yield (HLA-B*44:02 (human); remark: other sources report otherwise): 20 to 50%
Binder: QQATPGPAY

- peptide exchange yield (HLA-A*01:01 (human)): 50 to 75%
Binder: ITEKNSGLY

- peptide exchange yield (HLA-B*44:02 (human)): 50 to 75%
Binder: AEGGKVPIKW (modifications not checked)
